Numbering of substitutions follows the chain as printed.

The source of these data is patent US20190083612A1 (RINAT NEUROSCIENCE, published 2019).

Assay [1] concerns the target human PD-1 on primary human T cells (human) (UniProt Q15116). As to the kind of experiment: cell-based or functional assay.
The target is the same in assay [2]. In words: FACS, activated primary human T cells. In general terms: Flow cytometry measures light scatter and fluorescence of single cells or particles in a stream.
Assay [3] deals with cynomolgus monkey PD-1 on primary cynomolgus monkey T cells (cynomolgus monkey) (UniProt B0LAJ3). In words: FACS, naive primary cynomolgus monkey T cells.
Assay [4] has the same target. As to the kind of experiment: FACS, activated primary cynomolgus monkey T cells.
The target in assay [5] is T1, rat PD-1 on primary rat T cells (rat, UniProt D3ZIN8 25-287).
T1 sequence: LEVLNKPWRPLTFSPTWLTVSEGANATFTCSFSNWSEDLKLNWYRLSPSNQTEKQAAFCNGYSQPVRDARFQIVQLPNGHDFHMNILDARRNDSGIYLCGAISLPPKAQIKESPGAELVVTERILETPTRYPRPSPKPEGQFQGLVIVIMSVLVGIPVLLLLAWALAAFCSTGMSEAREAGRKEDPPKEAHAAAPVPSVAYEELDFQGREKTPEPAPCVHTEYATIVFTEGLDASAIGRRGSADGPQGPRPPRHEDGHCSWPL
As to the kind of experiment: FACS, activated primary rat T cells.

Assay [6] has as its target human PD-1 on primary human T cells (human) (UniProt Q15116). In words: FACS, naive primary human T cells.
In assay [7] the target is T1, rat PD-1 on primary rat T cells. As to the kind of experiment: FACS, naive primary rat T cells.
Assay [8] deals with T2, human PD-1 (hPD-1) monomer (human, UniProt Q15116 25-167).
T2 construct: also called hu-PD-1; not shown: His tag (His-tagged monomer)
In words: SPR, human PD-1, 25 C. In general terms: Surface plasmon resonance follows binding to a sensor surface in real time, without labels.

The target in assay [9] is T3, cynoPD-1-hFc1 (prepared in-house) (cynomolgus monkey; human, UniProt B0LAJ3 25-170). In words: SPR (Biacore 2000), Fab over anti-hFc-captured PD-1-hFc1, 25 C. How it is done: (§1) All interaction analysis was performed on label-free biosensors at 25° C. unless stated otherwise. Surface plasmon resonance biosensors (ProteOn-XPR™ from BioRad™, and Biacore 2000™ and Biacore T200™ from GE Life Sciences) were used to study human and cynomolgus monkey PD-1 and a biolayer interferometry biosensor (Octet-Red384, Fortebio/Pall Life Sciences) was used to study mouse PD-1. ProteOn experiments were performed in PBS pH 7.4+0.01% Tween-20 (PBST) running buffer. Biacore experiments were performed in 10 mM Hepes pH 7.4, 150 mM NaCl, 0.05% Tween-20 (HBST+) and Octet experiments were performed in HBST+ with 1 g/l BSA. The ProteOn data were processed in the ProteOn Manager software, the Biacore data were processed in Biaevaluation, and the Octet data were simply aligned to zero in the control software.
(§2) An anti-hFc polyclonal antibody was amine-coupled to the chip and used to capture approximately 90 RU hPD-1-hFc1 and 125 RU cynoPD-1-hFc1 on flow cells 2 and 3, leaving flow cell 1 blank (naked anti-hFc capture surface) to provide a reference channel. Recombinant purified Fabs were injected for two min as analyte at 0, 10, and 100 nM over freshly captured PD-1-hFc1 fusion proteins, allowing a 15-min dissociation time.

The target in assay [10] is T4, hPD-1-hFc1 (R&D systems cat. no. 1086PD) (human, UniProt Q15116 25-167).
T4 construct: Bought; not shown: human IgG1 Fc (hFc1)
The assay is described as above. How it is done:
as §1, §2

Assay [11] deals with T3, cynoPD-1-hFc1 (prepared in-house). As to the kind of experiment: SPR (Biacore 2000), Fab over anti-hFc-captured PD-1-hFc1, 25 C; 5% rule. How it is done:
as §2

The target of assay [12] is T4, hPD-1-hFc1 (R&D systems cat. no. 1086PD). The assay is described as above. How it is done: as §2
Assay [13] addresses T2, human PD-1 (hPD-1) monomer. As to the kind of experiment: SPR (ProteOn), hPD-1 monomer over amine-coupled IgG, 25 C; 5% rule. How it is done:
(§3) The surfaces for these experiments were prepared in three steps; (1) the ligand channels were minimally activated for two min using a freshly prepared mixture of the activation reagents at final 0.8 mM EDC and 0.2 mM sulfo-NHS in water, (2) the IgGs were coupled for three min at 15 μg/ml in 10 mM sodium acetate pH 4.5, and (3) excess reactive esters were blocked for three min with 1 M ethanolamine HCl pH 8.5. […] Association and dissociation times were 3 min and 20 min, respectively and all analytes were injected in duplicate binding cycles. Surfaces were regenerated with a cocktail of 2:1 v/v Pierce IgG elution buffer (pH 2.8):4 M NaCl.
N=2 refers to two independent experiments on different chips.

The target in assay [14] is T2, human PD-1 (hPD-1) monomer. In words: SPR (Biacore T200), hPD-1 monomer over anti-hFc-captured hIgG4, 37 C. How it is done: (§4) The hPD-1 was injected at active concentrations of 0, 10, and 100 nM for three minutes allowing an 18-min dissociation phase. The capture surfaces were regenerated with 75 mM phosphoric acid after each binding cycle.
The target of assay [15] is T2, human PD-1 (hPD-1) monomer. As to the kind of experiment: SPR (Biacore T200), hPD-1 monomer over anti-hFc-captured hIgG4, 25 C. The method, then: as §1, §4
Assay [16] deals with T2, human PD-1 (hPD-1) monomer. As to the kind of experiment: SPR (ProteOn), hPD-1 monomer over amine-coupled IgG, 25 C. The method, then:
as §1, §3

Chain of human PD-1 on primary human T cells (human) (Q15116 25-288 limits assumed): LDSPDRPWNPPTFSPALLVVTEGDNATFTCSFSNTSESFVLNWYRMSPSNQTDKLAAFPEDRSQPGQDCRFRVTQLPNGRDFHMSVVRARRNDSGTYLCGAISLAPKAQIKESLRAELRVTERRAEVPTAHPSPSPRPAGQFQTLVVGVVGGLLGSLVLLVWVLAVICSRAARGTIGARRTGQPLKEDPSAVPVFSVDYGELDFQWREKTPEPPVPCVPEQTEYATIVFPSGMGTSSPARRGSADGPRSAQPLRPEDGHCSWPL
T2 sequence (Q15116 25-167 limits assumed): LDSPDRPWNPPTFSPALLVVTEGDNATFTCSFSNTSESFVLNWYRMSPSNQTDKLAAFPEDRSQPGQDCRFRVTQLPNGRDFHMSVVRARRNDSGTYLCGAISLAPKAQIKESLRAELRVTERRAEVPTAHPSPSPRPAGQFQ
T4 sequence (Q15116 25-167 limits assumed): as above
T3 sequence (B0LAJ3 entry or part of it limits assumed): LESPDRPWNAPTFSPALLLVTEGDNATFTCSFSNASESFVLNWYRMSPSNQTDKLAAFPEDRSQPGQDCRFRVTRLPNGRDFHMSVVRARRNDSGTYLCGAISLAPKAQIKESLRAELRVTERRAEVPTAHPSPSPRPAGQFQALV
Chain of cynomolgus monkey PD-1 on primary cynomolgus monkey T cells (cynomolgus monkey) (B0LAJ3 entry or part of it limits assumed): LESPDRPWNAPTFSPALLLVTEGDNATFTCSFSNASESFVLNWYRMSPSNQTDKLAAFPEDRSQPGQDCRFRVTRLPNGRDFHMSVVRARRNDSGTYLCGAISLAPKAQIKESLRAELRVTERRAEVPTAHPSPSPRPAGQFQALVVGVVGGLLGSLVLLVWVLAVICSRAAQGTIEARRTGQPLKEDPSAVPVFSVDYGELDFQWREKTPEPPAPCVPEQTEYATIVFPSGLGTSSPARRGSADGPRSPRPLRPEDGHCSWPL

For “EH12.1 (BD Biosciences mouse anti human anti-PD-1 antibody, mouse isotype IgG1 Kappa)”, in [1], the IFNγ (pg/ml), MLR day 5, antibody 0.0001 µg/ml is 1700 pg/mL; the IFNγ (pg/ml), MLR day 5, antibody 0.001 µg/ml came to 2280 pg/mL; the IFNγ (pg/ml), MLR day 5, antibody 0.01 µg/ml is 4380 pg/mL; the IFNγ (pg/ml), MLR day 5, antibody 0.1 µg/ml was determined as 4730 pg/mL. Further, in assay [1], the IFNγ (pg/ml), MLR day 5, antibody 1 µg/ml came to 9910 pg/mL; the IFNγ (pg/ml), MLR day 5, antibody 10 µg/ml was 15100 pg/mL; the TNF (pg/ml), MLR day 5, antibody 0.0001 µg/ml came to 753 pg/mL; the TNF (pg/ml), MLR day 5, antibody 0.001 µg/ml is 687 pg/mL. In assay [1], this molecule returned a TNF (pg/ml), MLR day 5, antibody 0.01 µg/ml of 859 pg/mL; a TNF (pg/ml), MLR day 5, antibody 0.1 µg/ml of 745 pg/mL; a TNF (pg/ml), MLR day 5, antibody 1 µg/ml of 979 pg/mL; a TNF (pg/ml), MLR day 5, antibody 10 µg/ml of 1950 pg/mL.
As for “Negative control antibody (anti-bovine herpes virus, IgG4-HG framework)”, the % Binding in assay [2] is 4.75%; in [3] it was 5.38%; in assay [4], 4.67%; in [5], 4.36%; in [6], 3.49%; in assay [7], 0.82%.

B1: mAb2 (antibody, V domains shown)
VH: QVQLVQSGAEVKKPGASVKVSCKASGYTFTSYWINWVRQAPGQGLEWMGNIYPGSSLTNYNEKFKNRVTMTRDTSTSTVYMELSSLRSEDTAVYYCARLLTGTFAYWGQGTLVTVSS
VL: DIVMTQSPDSLAVSLGERATINCKSSQSLWDSGNQKNFLTWYQQKPGQPPKLLIYWTSYRESGVPDRFSGSGSGTDFTLTISSLQAEDVAVYYCQNDYFYPLTFGGGTKVEIK
notes: Variable regions only
Usually Kd stands for the free concentration of one partner at which half of the binding sites on the other are occupied at equilibrium, for simple one-to-one binding. For the molecule B1, the affinity in assay [8], expressed as Kd, was 2.22 nM.

B2: mAb7 Fab (Fab, V domains shown)
VH: B1 VH with L100S
VL: B1 VL with L102H
The kon is the rate constant with which the complex forms. Usually koff stands for the rate constant with which the complex falls apart. Consider B2, for which the Kd in assay [9] is less than 0.108 nM; in [10] it was less than 0.101 nM. The values for the kon in assay [9] and in assay [10] were 526000 M⁻¹ s⁻¹ and 567000 M⁻¹ s⁻¹, respectively. In addition, the koff in assay [11] and in assay [12] was less than 5.7e-05 s⁻¹ in each case.

B3: mAb8 (antibody, V domains shown)
VH: B1 VH with L100S
VL: B1 VL with G33T, Y59T
notes: Variable regions only
In turn, B3 returned an equilibrium dissociation constant (Kd) in [8] of 17.4 nM.

B4: mAb6 (antibody, V domains shown)
VH: B1 VH with L100S
VL: B1 VL
notes: Variable regions only
In assay [8], B4 showed a Kd of 1.16 nM.

B5: mAb12 (antibody, V domains shown)
VH: B1 VH with L57I, L100T
VL: B1 VL with G33T, Y59T
notes: Variable regions only
In assay [8], B5 yielded a Kd of 17.3 nM.

B6: mAb1 (antibody, V domains shown)
VH: B1 VH
VL: B1 VL with Y59T
notes: Variable regions only
In assay [8], B6 had a Kd of 64.2 nM.

B7: mAb5 (antibody, V domains shown)
VH: B1 VH with L100S
VL: B1 VL with Y59T
notes: Variable regions only
The molecule B7 came in with a Kd in [8] of 12.8 nM.

B8: mAb3 (antibody, V domains shown)
VH: B1 VH
VL: B1 VL with L102H
notes: Variable regions only
For the molecule B8, binding in assay [8] was put at a Kd of 1.43 nM.

B9: mAb9 (antibody, V domains shown)
VH: B1 VH with L57I, L100T
VL: B1 VL with Y59T
notes: Variable regions only
Molecule B9 showed a Kd in assay [8] of 13.5 nM.

B10: mAb15 (human IgG4 kappa, hinge stabilized) (antibody, V domains shown)
VH: B1 VH with Y52W
VL: B1 VL with L102H
notes: also called mAb15-G4; mAb15 (G4)
As to B10, the koff is less than 4.3e-05 s⁻¹ in assay [13], 0.000373 s⁻¹ in assay [14] and 0.000171 s⁻¹ in assay [15]. In addition, the Kd in assay [14] is 0.54 nM; in assay [15], 0.49 nM; in assay [16], less than 0.058 nM; in [8] it was 0.49 nM. For the same molecule, the kon came out at 694000 M⁻¹ s⁻¹ in [14], 349000 M⁻¹ s⁻¹ in assay [15] and 732000 M⁻¹ s⁻¹ in assay [16].

B11: mAb15 Fab (Fab, V domains shown)
VH: B1 VH with Y52W
VL: B1 VL with L102H
As to B11, the Kd in assay [9] was less than 0.069 nM; in assay [10], less than 0.062 nM. Further, the kon was 824000 M⁻¹ s⁻¹ in assay [9] and 916000 M⁻¹ s⁻¹ in assay [10]. Moreover, the koff in assay [11] and in assay [12] was less than 5.7e-05 s⁻¹ in each case.

B12: mAb13 (antibody, V domains shown)
VH: B1 VH with Y52W
VL: B1 VL with Y59T
notes: Variable regions only
The molecule B12 yielded a Kd in assay [8] of 5.87 nM.

B13: mAb16 (antibody, V domains shown)
VH: B1 VH with Y52W
VL: B1 VL with G33T, Y59T
notes: Variable regions only
In turn, B13 had a Kd in assay [8] of 7.51 nM.

B14: mAb14 (antibody, V domains shown)
VH: B1 VH with Y52W
VL: B1 VL
notes: Variable regions only
The molecule B14 showed a Kd in assay [8] of 0.6 nM.

B15: mAb7 IgG1 AAA (antibody, V domains shown)
VH: B1 VH with L100S
VL: B1 VL with L102H
notes: also called mAb7-AAA
Regarding B15, the koff in [13] was less than 4.3e-05 s⁻¹. Besides, in [16], the Kd was less than 0.086 nM and the kon is 497000 M⁻¹ s⁻¹.

B16: mAb11 (antibody, V domains shown)
VH: B1 VH with L57I, L100T
VL: B1 VL with L102H
notes: Variable regions only
Turning to B16, the Kd in assay [8] came to 0.93 nM.

B17: mAb15 IgG1 AAA (antibody, V domains shown)
VH: B1 VH with Y52W
VL: B1 VL with L102H
notes: also called mAb15-AAA
As for B17, in assay [13], the koff is less than 4.3e-05 s⁻¹. Besides, in [16], the Kd is less than 0.053 nM and the kon was 813000 M⁻¹ s⁻¹.

B18: mAb10 (antibody, V domains shown)
VH: B1 VH with L57I, L100T
VL: B1 VL
notes: Variable regions only
B18 registered a Kd in assay [8] of 0.98 nM.
